Experimental findings from the RNAGym collection of RNA variant scans (doi:10.1093/molbev/msab373) are described below.

To fix the notation:
B1: Azoarcus group I ribozyme (parent)
chain: GUGCCUUGCGCCGGGAAACCACGCAAGGGAUGGUGUCAAAUUCGGCGAAACCUAAGCGCCCGCCCGGGCGUAUGGCAACGCCGAGCCAAGCUUCGGCGCCUGCGCCGAUGAAGGUGUAGAGACUAGACGGCACCCACCUAAGGCAAACGCUAUGGUGAAGGCAUAGUCCAGGGAGUGGCGAAAGUCACACAAACCGG

The series covers variants of B1. Put plainly: reverse-splicing fitness (ratio to wild type); higher = more active; in vitro selection; Mg2+ level not given. An outline of the steps: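 An in vitro group I ribozyme library with randomized positions was T7-transcribed and gel-purified. In triplicate, 10 pmol RNA in EPPS pH 7.5 was reacted with 50 pmoles of a 30-nt RNA substrate for 1 h at 37 °C across several added MgCl2 levels (1–48 mM), then stopped with EDTA. Products were reverse transcribed from a substrate-complementary primer, PCR-amplified and sequenced (HiSeq 4000). Fitness is a variant's read proportion after selection over that before, normalised to wild type.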
Regarding GUGCCUUGCGCCGGGAAACCACGCAAGGGAUGGUGUCAAAUUCGGCGAAACCUAAGCGCCCGCCCGGGCGUAUGGCAACGCCGAGCCAAGCUUCGGCGCCUGCGCCGAUGAAGGUGUAGCGACUAGACGGCACCCACCUAAGGCAAACGCUAUGGUGAAGGCAUAGUCCAGGGAGGGGCGAAAGUCACACAAACCGG, the reverse-splicing fitness came to 0.244.
Regarding GUGCCUUGCGCCGGGAAACCACGCAAGGGAUGGUGUCAAAUUCGGCGAAACCUAAGCGCCCGCCCGGGCGUAUGGCAACGCCGAGCCAAGCUUCGGCGCCUGCGCCGAUGAAGGUGUAGCGACUAGACGGCACCCACCUAAGGCAAACGCUAUGGUGAAGGCAUAGUCCAGGGAGAGGCGAAAGUCACACAAACCGG, the reverse-splicing fitness was 0.663.
For GUGCCUUGCGCCGGGAAACCACGCAAGGGAUGGUGUCAAAUUCGGCGAAACCUAAGCGCCCGCCCGGGCGUAUGGCAACGCCGAGCCAAGCUUCGGCGCCUGCGCCGAUGAAGGUGUAGCGACUAGACGGCACCCACCUAAGGCAAACGCUAUGGUGAAGGCAUAGUCCAGGGAGCGGCGAAAGUCACACAAACCGG the value was 0.714.
As to GUGCCUUGCGCCGGGAAACCACGCAAGGGAUGGUGUCAAAUUCGGCGAAACCUAAGCGCCCGCCCGGGCGUAUGGCAACGCCGAGCCAAGCUUCGGCGCCUGCGCCGAUGAAGGUGUAGGGACUAGACGGCACCCACCUAAGGCCAACGAUAUGGUGAAGGCAUAGUCUAGGGAGAGGCGAAAGUCACACAAACCGG, the reverse-splicing fitness came to 0.0398.
Take GUGCCUUGCGCCGGGAAACCACGCAAGGGAUGGUGUCAAAUUCGGCGAAACCUAAGCGCCCGCCCGGGCGUAUGGCAACGCCGAGCCAAGCUUCGGCGCCUGCGCCGAUGAAGGUGUAGGGACUAGACGGCACCCACCUAAGGCCAACGAUAUGGUGAAGGCAUAGUCUAGGGAGGGGCGAAAGUCACACAAACCGG: the reverse-splicing fitness was found to be 0.00621.
To GUGCCUUGCGCCGGGAAACCACGCAAGGGAUGGUGUCAAAUUCGGCGAAACCUAAGCGCCCGCCCGGGCGUAUGGCAACGCCGAGCCAAGCUUCGGCGCCUGCGCCGAUGAAGGUGUAGGGACUAGACGGCACCCACCUAAGGCCAACGAUAUGGUGAAGGCAUAGUCUAGGGAGCGGCGAAAGUCACACAAACCGG belongs 0.0294; to GUGCCUUGCGCCGGGAAACCACGCAAGGGAUGGUGUCAAAUUCGGCGAAACCUAAGCGCCCGCCCGGGCGUAUGGCAACGCCGAGCCAAGCUUCGGCGCCUGCGCCGAUGAAGGUGUAGCGACUAGACGGCACCCACCUAAGGCAAACGCUAUGGUGAAGGCAUAGUCAAGGGAGGGGCGAAAGUCACACAAACCGG, 0.00454.
As to GUGCCUUGCGCCGGGAAACCACGCAAGGGAUGGUGUCAAAUUCGGCGAAACCUAAGCGCCCGCCCGGGCGUAUGGCAACGCCGAGCCAAGCUUCGGCGCCUGCGCCGAUGAAGGUGUAGCGACUAGACGGCACCCACCUAAGGCAAACGCUAUGGUGAAGGCAUAGUCAAGGGAGCGGCGAAAGUCACACAAACCGG, the reverse-splicing fitness amounted to 0.0233.
Consider GUGCCUUGCGCCGGGAAACCACGCAAGGGAUGGUGUCAAAUUCGGCGAAACCUAAGCGCCCGCCCGGGCGUAUGGCAACGCCGAGCCAAGCUUCGGCGCCUGCGCCGAUGAAGGUGUAGGGACUAGACGGCACCCACCUAAGGCCAACGAUAUGGUGAAGGCAUAGUCGAGGGAGAGGCGAAAGUCACACAAACCGG, for which the reverse-splicing fitness was determined as 0.0447.
For the variant GUGCCUUGCGCCGGGAAACCACGCAAGGGAUGGUGUCAAAUUCGGCGAAACCUAAGCGCCCGCCCGGGCGUAUGGCAACGCCGAGCCAAGCUUCGGCGCCUGCGCCGAUGAAGGUGUAGGGACUAGACGGCACCCACCUAAGGCCAACGAUAUGGUGAAGGCAUAGUCGAGGGAGCGGCGAAAGUCACACAAACCGG, the reverse-splicing fitness was 0.0391.
For GUGCCUUGCGCCGGGAAACCACGCAAGGGAUGGUGUCAAAUUCGGCGAAACCUAAGCGCCCGCCCGGGCGUAUGGCAACGCCGAGCCAAGCUUCGGCGCCUGCGCCGAUGAAGGUGUAGGGACUAGACGGCACCCACCUAAGGCCAACGAUAUGGUGAAGGCAUAGUCGAGGGAGGGGCGAAAGUCACACAAACCGG the value was 0.00572.
For GUGCCUUGCGCCGGGAAACCACGCAAGGGAUGGUGUCAAAUUCGGCGAAACCUAAGCGCCCGCCCGGGCGUAUGGCAACGCCGAGCCAAGCUUCGGCGCCUGCGCCGAUGAAGGUGUAGGGACUAGACGGCACCCACCUAAGGCCAACGAUAUGGUGAAGGCAUAGUCAAGGGAGGGGCGAAAGUCACACAAACCGG the value was 0.00472; for GUGCCUUGCGCCGGGAAACCACGCAAGGGAUGGUGUCAAAUUCGGCGAAACCUAAGCGCCCGCCCGGGCGUAUGGCAACGCCGAGCCAAGCUUCGGCGCCUGCGCCGAUGAAGGUGUAGGGACUAGACGGCACCCACCUAAGGCCAACGAUAUGGUGAAGGCAUAGUCAAGGGAGCGGCGAAAGUCACACAAACCGG, 0.0164; for GUGCCUUGCGCCGGGAAACCACGCAAGGGAUGGUGUCAAAUUCGGCGAAACCUAAGCGCCCGCCCGGGCGUAUGGCAACGCCGAGCCAAGCUUCGGCGCCUGCGCCGAUGAAGGUGUAGGGACUAGACGGCACCCACCUAAGGCCAACGAUAUGGUGAAGGCAUAGUCAAGGGAGAGGCGAAAGUCACACAAACCGG, 0.0162.
To GUGCCUUGCGCCGGGAAACCACGCAAGGGAUGGUGUCAAAUUCGGCGAAACCUAAGCGCCCGCCCGGGCGUAUGGCAACGCCGAGCCAAGCUUCGGCGCCUGCGCCGAUGAAGGUGUAGCGACUAGACGGCACCCACCUAAGGCAAACGCUAUGGUGAAGGCAUAGUCGAGGGAGCGGCGAAAGUCACACAAACCGG belongs 0.0166.
Take GUGCCUUGCGCCGGGAAACCACGCAAGGGAUGGUGUCAAAUUCGGCGAAACCUAAGCGCCCGCCCGGGCGUAUGGCAACGCCGAGCCAAGCUUCGGCGCCUGCGCCGAUGAAGGUGUAGCGACUAGACGGCACCCACCUAAGGCAAACGCUAUGGUGAAGGCAUAGUCGAGGGAGAGGCGAAAGUCACACAAACCGG: the reverse-splicing fitness is 0.016.
As for GUGCCUUGCGCCGGGAAACCACGCAAGGGAUGGUGUCAAAUUCGGCGAAACCUAAGCGCCCGCCCGGGCGUAUGGCAACGCCGAGCCAAGCUUCGGCGCCUGCGCCGAUGAAGGUGUAGCGACUAGACGGCACCCACCUAAGGCAAACGCUAUGGUGAAGGCAUAGUCGAGGGAGGGGCGAAAGUCACACAAACCGG, the reverse-splicing fitness came out at 0.0039.
For GUGCCUUGCGCCGGGAAACCACGCAAGGGAUGGUGUCAAAUUCGGCGAAACCUAAGCGCCCGCCCGGGCGUAUGGCAACGCCGAGCCAAGCUUCGGCGCCUGCGCCGAUGAAGGUGUAGGGACUAGACGGCACCCACCUAAGGCCAACGAUAUGGUGAAGGCAUAGUCCAGGGAGUGGCGAAAGUCACACAAACCGG, the reverse-splicing fitness was 0.0374.
For GUGCCUUGCGCCGGGAAACCACGCAAGGGAUGGUGUCAAAUUCGGCGAAACCUAAGCGCCCGCCCGGGCGUAUGGCAACGCCGAGCCAAGCUUCGGCGCCUGCGCCGAUGAAGGUGUAGGGACUAGACGGCACCCACCUAAGGCCAACGAUAUGGUGAAGGCAUAGUCAAGGGAGUGGCGAAAGUCACACAAACCGG the value was 0.029; for GUGCCUUGCGCCGGGAAACCACGCAAGGGAUGGUGUCAAAUUCGGCGAAACCUAAGCGCCCGCCCGGGCGUAUGGCAACGCCGAGCCAAGCUUCGGCGCCUGCGCCGAUGAAGGUGUAGGGACUAGACGGCACCCACCUAAGGCCAACGAUAUGGUGAAGGCAUAGUCUAGGGAGUGGCGAAAGUCACACAAACCGG, 0.0377.
For GUGCCUUGCGCCGGGAAACCACGCAAGGGAUGGUGUCAAAUUCGGCGAAACCUAAGCGCCCGCCCGGGCGUAUGGCAACGCCGAGCCAAGCUUCGGCGCCUGCGCCGAUGAAGGUGUAGGGACUAGACGGCACCCACCUAAGGCCAACGAUAUGGUGAAGGCAUAGUCGAGGGAGUGGCGAAAGUCACACAAACCGG, the reverse-splicing fitness worked out at 0.0475.
To GUGCCUUGCGCCGGGAAACCACGCAAGGGAUGGUGUCAAAUUCGGCGAAACCUAAGCGCCCGCCCGGGCGUAUGGCAACGCCGAGCCAAGCUUCGGCGCCUGCGCCGAUGAAGGUGUAGGGACUAGACGGCACCCACCUAAGGCCAACGAUAUGGUGAAGGCAUAGUCCAGGGAGAGGCGAAAGUCACACAAACCGG belongs 0.027.
In the case of GUGCCUUGCGCCGGGAAACCACGCAAGGGAUGGUGUCAAAUUCGGCGAAACCUAAGCGCCCGCCCGGGCGUAUGGCAACGCCGAGCCAAGCUUCGGCGCCUGCGCCGAUGAAGGUGUAGGGACUAGACGGCACCCACCUAAGGCCAACGAUAUGGUGAAGGCAUAGUCCAGGGAGCGGCGAAAGUCACACAAACCGG, the reverse-splicing fitness came out at 0.0279.
With GUGCCUUGCGCCGGGAAACCACGCAAGGGAUGGUGUCAAAUUCGGCGAAACCUAAGCGCCCGCCCGGGCGUAUGGCAACGCCGAGCCAAGCUUCGGCGCCUGCGCCGAUGAAGGUGUAGGGACUAGACGGCACCCACCUAAGGCCAACGCUAUGGUGAAGGCAUAGUCCAGGGAGUGGCGAAAGUCACACAAACCGG, the reverse-splicing fitness came to 0.479.
To GUGCCUUGCGCCGGGAAACCACGCAAGGGAUGGUGUCAAAUUCGGCGAAACCUAAGCGCCCGCCCGGGCGUAUGGCAACGCCGAGCCAAGCUUCGGCGCCUGCGCCGAUGAAGGUGUAGCGACUAGACGGCACCCACCUAAGGCAAACGCUAUGGUGAAGGCAUAGUCUAGGGAGGGGCGAAAGUCACACAAACCGG belongs 0.0174; to GUGCCUUGCGCCGGGAAACCACGCAAGGGAUGGUGUCAAAUUCGGCGAAACCUAAGCGCCCGCCCGGGCGUAUGGCAACGCCGAGCCAAGCUUCGGCGCCUGCGCCGAUGAAGGUGUAGCGACUAGACGGCACCCACCUAAGGCAAACGCUAUGGUGAAGGCAUAGUCUAGGGAGCGGCGAAAGUCACACAAACCGG, 0.174.
For GUGCCUUGCGCCGGGAAACCACGCAAGGGAUGGUGUCAAAUUCGGCGAAACCUAAGCGCCCGCCCGGGCGUAUGGCAACGCCGAGCCAAGCUUCGGCGCCUGCGCCGAUGAAGGUGUAGCGACUAGACGGCACCCACCUAAGGCAAACGCUAUGGUGAAGGCAUAGUCUAGGGAGAGGCGAAAGUCACACAAACCGG the value was 0.155; for GUGCCUUGCGCCGGGAAACCACGCAAGGGAUGGUGUCAAAUUCGGCGAAACCUAAGCGCCCGCCCGGGCGUAUGGCAACGCCGAGCCAAGCUUCGGCGCCUGCGCCGAUGAAGGUGUAGGGACUAGACGGCACCCACCUAAGGCAAACGCUAUGGUGAAGGCAUAGUCCAGGGAGUGGCGAAAGUCACACAAACCGG, 0.549; for GUGCCUUGCGCCGGGAAACCACGCAAGGGAUGGUGUCAAAUUCGGCGAAACCUAAGCGCCCGCCCGGGCGUAUGGCAACGCCGAGCCAAGCUUCGGCGCCUGCGCCGAUGAAGGUGUAGCGACUAGACGGCACCCACCUAAGGCAAACGCUAUGGUGAAGGCAUAGUCUAGGGAGUGGCGAAAGUCACACAAACCGG, 0.435.
To GUGCCUUGCGCCGGGAAACCACGCAAGGGAUGGUGUCAAAUUCGGCGAAACCUAAGCGCCCGCCCGGGCGUAUGGCAACGCCGAGCCAAGCUUCGGCGCCUGCGCCGAUGAAGGUGUAGCGACUAGACGGCACCCACCUAAGGCAAACGCUAUGGUGAAGGCAUAGUCGAGGGAGUGGCGAAAGUCACACAAACCGG belongs 0.029.
